Biological target: FITC-labeled BMF peptide (FITC-…)
Assay: fluorescence polarisation

Chain of 6xHis-tagged LC8 (DYNLL2) (Q96FJ2 whole entry): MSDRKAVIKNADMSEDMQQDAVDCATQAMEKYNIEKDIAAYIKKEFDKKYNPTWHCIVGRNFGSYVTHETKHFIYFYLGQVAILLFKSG

Substance “6xHis-tagged LC8 (DYNLL2) (from UniProt Q96FJ2 1-89) (natural protein)” has an LC8 concentration at 80% saturation of the labeled BMF peptide of 12 µM.

Source: publication doi:10.1101/2023.09.15.557927
